Where a chain is given by its changes, count along the chain named.
B1: Construct 1, bispecific anti-CD3×IL5R single-chain diabody comprising the humanized variable domain of clone-06 (bispecific antibody, part only; not given: anti-IL5R domains and linkers, part only)
chain, part: DIQMTQSPSSLSASVGDRVTITCQSSESVYNNKRLSWYQQKPGKAPKLLIYTASSLASGVPSRFSGSGSGTDFTLTISSLQPEDFATYYCQGEFTCSNADCFTFGQGTKLTVLGEVQLVESGGGLVQPGGSLRLSCAASGFPLSSYAMIWVRQAPGKGLEWIGMILRAGNIYYASWVKGRFTISRDNSKNTVYLQMNSLRAEDTAVYYCARRHYNREGYPIGIGDLWGQGTLVTVSS
B2: clone-02 (monoclonal rabbit anti-CD3ε antibody) (antibody, V domains shown)
VH: QSLEESGGRLVTPGTPLTLTCTVSGFPLSAYAMIWVRQAPGKGLEWIGMIIRSGTVYYANWAKGRFTISKTSTTVDLKITSPTTEDTATYFCARRHYNADGYPIGIGDLWGPGTLVTVSS
VL: AQVLTQTPSSVSAVVGGTVTISCQSSESVYSNNRLSWFQQKPGQPPKLLIYSASTLASGVPSRFKGSGSGTQFTLTITDLECDDAATYFCQGEFSCSSVDCFSFGGGTEVVVKG
B3: clone-06 (monoclonal rabbit anti-CD3ε antibody) (antibody, V domains shown)
VH: QSVEESGGRLVTPGTPLTLTCTVSGFPLSSYAMIWVRQAPGKGLEWIGMILRAGNIYYASWVKGRVTISKTSTTVDLKITSPTTEDTATYFCARRHYNREGYPIGIGDLWGPGTLVTVSS
VL: AQVLTQTPSSVSAAVGGTVTISCQSSESVYNNKRLSWFQQKPGQPPKQLIYTASSLASGVPSRFKGSGSGTQFTLTISDLECDDAATYYCQGEFTCSNADCFTFGGGTEVVVKG
B4: clone-10 (monoclonal rabbit anti-CD3ε antibody) (antibody, V domains shown)
VH: QSLEESGGRLVTPGTPLTLTCTVSGFPLSSFAMLWVRQAPGKGLEWIGMIMRAHNMYYASWAKGRFTISKTSTTVDLEITSPTTEDTATYFCARRHYNTYGYPIAIGDLWGPGTLVTVSS
VL: AQVLTQTPSSVSAAVGGTATISCQSNENIYSNNRLSWFQQKAGQPPNQLIYSASSLASGVPSRFKGSGSGTQFTLTISDLECDDAATYYCQGEFSCSSADCFTFGGGTEVVVKG
B5: bispecific anti-IL5R×CD3ε single-chain diabody containing Numab's humanized clone 6 anti-CD3 variable domain (Example 9) (bispecific antibody)
chain: DIQMTQSPSSLSASVGDRVTITCQASQNIYSNLAWYQQKPGKAPKLLIYRASTLASGVPSRFSGSGSGTDFTLTISSLQPEDFATYYCQSNYGINYYGAAFGQGTKLTVLGGGGGSEVQLVESGGGLVQPGGSLRLSCAASGFPLSSYAMIWVRQAPGKGLEWIGMILRAGNIYYASWVKGRFTISRDNSKNTVYLQMNSLRAEDTAVYYCARRHYNREGYPIGIGDLWGQGTLVTVSSGGGGSGGGGSGGGGSGGGGSDIQMTQSPSSLSASVGDRVTITCQSSESVYNNKRLSWYQQKPGKAPKLLIYTASSLASGVPSRFSGSGSGTDFTLTISSLQPEDFATYYCQGEFTCSNADCFTFGQGTKLTVLGGGGGSEVQLVESGGGLVQPGGSLRLSCAASGFSLSSYDMTWVRQAPGKGLEWIGIIYVSGSAYYASWAKGRFTISRDNSKNTVYLQMNSLRAEDTAVYYCARINYGLDLWGQGTLVTVSS
B6: clone-03 (monoclonal rabbit anti-CD3ε antibody) (antibody, V domains shown)
VH: B4 VH with S29N, S30R, F31Y, M49L, M51T, H54D, N55K, M56K, S81G, Y100D
VL: B4 VL with A19V, A42P, S95N, S97N
B7: clone-04 (monoclonal rabbit anti-CD3ε antibody) (antibody, V domains shown)
VH: QSLEESGGRLVKPDETLTLTCTVSGFPLSSYAMGWFRQAPGKGLEWIGMILRSDNTYYASWAKGRFTISKTSTTVDLKITSPTTEDTATYFCARRHYNASGNPIAIGDLWGPGTLVTVSS
VL: B3 VL with S22N, E27Q, K33N, Q48L, A53T, Q72E, D83A, T95S, N98R, T103N

Assays:
[1] = target: human CD3ε expressed on the cell surface of T cells (Jurkat clone E6-1; human CD8+ T cells) (human) (UniProt P07766); assay: cell-based or functional assay
[2] = target: human CD3ε expressed on the cell surface of T cells (Jurkat clone E6-1; human CD8+ T cells) (human) (UniProt P07766); assay: cell-based or functional assay; remark: listed apart in the source
[3] = target: human heterodimeric single-chain CD3εγ extracellular domain (human) (UniProt P07766); assay: SPR, human scCD3εγ ECD immobilised, scDb injected
[4] = target: T1, human CD3ε expressed on the cell surface of T cells (Jurkat clone E6-1; human CD8+ T cells) (human, UniProt P07766 23-207); assay: cell-based or functional assay
[5] = target: T1, human CD3ε expressed on the cell …; assay: cell-based or functional assay; remark: listed apart in the source

Molecule	Fold increase in CD69 expression [MFI normalized to neg. ctrl.], 1.25 µg/ml anti-CD3 IgG, Jurkat cells, 24 h [4] [fold]	Fold increase in CD69 expression [MFI normalized to neg. ctrl.], 5 µg/ml anti-CD3 IgG, Jurkat cells, 24 h [4] [fold]	Fold increase in CD69 expression [MFI normalized to neg. ctrl.], 20 µg/ml anti-CD3 IgG, Jurkat cells, 24 h [4] [fold]	also measured
OKT3 (BioLegend, Cat. No. 317302) (antibody)	–	–	–	Fold increase in CD69 expression [MFI normalized to neg. ctrl.], 1.25 µg/ml anti-CD3 IgG, Jurkat cells, 24 h [1]: 1.8 fold; Fold increase in CD69 expression [MFI normalized to neg. ctrl.], 5 µg/ml anti-CD3 IgG, Jurkat cells, 24 h [1]: 2.5 fold; Fold increase in CD69 expression [MFI normalized to neg. ctrl.], 20 µg/ml anti-CD3 IgG, Jurkat cells, 24 h [1]: 3.1 fold
TR66 (Novus Biologicals, Cat. No. NBP1-97446) (antibody)	–	–	–	Fold increase in CD69 expression [MFI normalized to neg. ctrl.], 1.25 µg/ml anti-CD3 IgG, Jurkat cells, 24 h [1]: 1.6 fold; Fold increase in CD69 expression [MFI normalized to neg. ctrl.], 5 µg/ml anti-CD3 IgG, Jurkat cells, 24 h [1]: 2.2 fold; Fold increase in CD69 expression [MFI normalized to neg. ctrl.], 20 µg/ml anti-CD3 IgG, Jurkat cells, 24 h [1]: 3 fold
B1	–	–	–	Potency to lyse target cells [EC50] (CHO-IL5R cells, CD8+ T cells, 88 h) [2]: 0.1 nM; Potency to stimulate IL-2 secretion by T cells [EC50] [2]: 0.96 nM; Kd [3]: 11.5 nM
B2	3.3	4.6	7.4	–
B3	2.7	5.1	5.3	–
B4	2.6	4.2	6.2	–
B5	–	–	–	EC50 of specific lysis of CHO-IL5R target cells by CD8+ T cells at 64 hours [5]: 0.31 nM
B6	2.6	4.6	6.6	–
B7	2.6	3.5	7.8	–

Source: patent US20170073415A1 (NUMAB, published 2017)
